Laboratory results as given in paper PMC314469, “Protein Interaction Networks by Proteome Peptide Scanning” (PLoS Biology, 2004).

Biological target: Sho1 SH3 (SHO1_YEAST), P40073
Assay: SPOT array

Sequence of Sho1 SH3 (SHO1_YEAST), P40073 (P40073 295-366): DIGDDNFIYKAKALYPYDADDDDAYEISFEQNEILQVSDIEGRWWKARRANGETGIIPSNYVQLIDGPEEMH

Row | normalised SPOT signal, Boehringer light units (BLU); mean over the file's lines of this peptide | Binder
1 | 141 | IEVPQSPTKNRVKV [61-74 (putative) involved in DNA replication]
2 | 86.1 | IPTPSKPLKKRKKR [390-403 serine/threonine-rich membrane protein]
3 | 242 | ILLPPLPERAYIMD [459-472 Hypothetical ORF]
4 | 39.3 | GRIPQLPNRDEMTA [1268-1281 protein kinase]
5 | 109 | GVYPSRPEKTYDYS
6 | 224 | KKYPRKPKKNLNLG [336-349 Hypothetical ORF]
7 | 164 | IQHPFLPRKIPIIT [408-421 mitochondrial and cytoplasmic valyl-tRNA synthetase]
8 | 175 | KWEPSTPQRNGPIL [158-171 Hypothetical ORF]
9 | 158 | GYDPTDPNRPKVTK [1426-1439 Hypothetical ORF]
10 | 139 | HGVPVVPSREVTIN [440-453 protoporphyrinogen oxidase]
11 | 85.4 | KSFPPPPLKPGQKT [84-97 Hypothetical ORF]
12 | 8750 | IMPPPKPFRHGLDS [517-530 Hypothetical ORF]
13 | 3960 | KRTPKIPEKDVKSD [223-236 Hypothetical ORF]
14 | 59.4 | IAYPFYPFKKLGRQ [32-45 Hypothetical ORF]
15 | 159 | ILKPDIPLRNMLLR [138-151 Hypothetical ORF]
16 | 94.7 | IHSPRIPSKDEFIA
17 | 60.3 | GSSPVSPDKRPSWK [66-79 vacuolar alpha mannosidase]
18 | 2110 | KLRPDLPVKNFVVK [641-654 subunit of assimilatory sulfite reductase]
19 | 201 | HSSPIAPSKAKRQR [64-77 Transcription factor (fork head domain)]
20 | 174 | IINPDTPHRRIFNQ [264-277 AP endonuclease]

Row | normalised SPOT signal, Boehringer light units (BLU); mean over the file's lines of this peptide | Binder
21 | 250 | IFGPFGPMKEVKIL [144-157 nuclear shuttling protein with an RNA recognition motif]
22 | 79.6 | KISPSAPSKDSFTK [350-363 nuclear pore protein]
23 | 152 | KKDPNAPKRRLSAY [21-34 11-kDa nonhistone chromosomal protein]
24 | 103 | HNSPVAPNRYAANL [84-97 chitin synthase 2]
25 | 137 | KSSPWSPYKVEKVL [161-174 Mitotic spindle protein involved in chromosome segregation.]
26 | 327 | IAAPKKPRKPRQTK [241-254 RNA polymerase II mediator subunit]
27 | 159 | KYDPDNPNKDKLGT
28 | 237 | KFHPPEPYKGKGIY [187-200 Mitochondrial ribosomal protein MRPL6 (YmL6)]
29 | 203 | KKLPTGPSKKRQRK [1280-1293 transcriptional regulator]
30 | 31800 | KNLPTIPIRLSGID [143-156 Hypothetical ORF]
31 | 60.6 | KFIPNKPYRQFNTW [339-352 gamma-aminobutyrate (GABA) transaminase (4-aminobutyrate aminotransferase)]
32 | 25.5 | KDHPYDPEKDSVLK [97-110 vacuolar ATPase V1 domain subunit F (14 kDa)]
33 | 216 | KPDPESPSKLRHYE [851-864 involved in cell wall biogenesis]
34 | 119 | GYDPTDPSRPRINE [1469-1482 Hypothetical ORF]
35 | 189 | GRHPDMPTRVKNAY [219-232 component of cytoplasmic chaperonin complex]
36 | 140 | GSNPDLPNKSNLKF [307-320 " Twinfilin A, an actin monomer sequestering protein"]
37 | 206 | KNLPLNPSKKLEGK [313-326 Hypothetical ORF]
38 | 48.8 | IFDPQDPYRRAQQF [496-509 Hypothetical ORF]
39 | 112 | IAHPVRPHRAITMT [631-644 dual specificity protein phosphatase]
40 | 1220 | KIMPPTPAKKVEFI [312-325 putative GTP-exchange protein]

Row | normalised SPOT signal, Boehringer light units (BLU); mean over the file's lines of this peptide | Binder
41 | 240 | HSTPVTPRRLFTSQ [171-184 protein required for Clb2 and Ase1 degradation]
42 | 93 | LDDPFTPPRWLHHI
43 | 102 | LSIPDLPLRIHNQT [13-26 Hypothetical ORF]
44 | 129 | ILSPGYPNKSFNNK [653-666 heat shock transcription factor]
45 | 174 | IAYPGDPLRFHSHL [207-220 34kDa subunit of the tetrameric tRNA splicing endonuclease]
46 | 64.6 | KKDPFPPPKDLLVQ [421-434 110 kDa subunit of the centromere binding factor CBF3]
47 | 175 | LDYPKAPIKLTMKS [160-173 Hypothetical ORF]
48 | 182 | IFGPSFPFRSHIDV [170-183 Possible RNA binding protein. Homolog of Whi3.]
49 | 94.4 | KLEPENPQKPSNTH [238-251 Hypothetical ORF]
50 | 281 | ITLPRRPAKKIQLG [41-54 Mitochondrial ribosomal protein MRPL36 (YmL36)]
51 | 125 | IIFPTSPTKLTFSN [112-125 Cell cycle-dependent filament between nuclei]
52 | 113 | IIFPYDPLKLGTHA [509-522 Weak similarity to Pta1p (pre-tRNA processing protein)]
53 | 141 | INQPSTPKKLKRKS [316-329 PLasmid Maintenance]
54 | 56.4 | ISTPPPPPKMAIPA [390-403 " type II PI(4)P5-kinase (PIP4,5 kinase) similar to human PIP5K-II"]
55 | 202 | HPDPADPAKELELN [377-390 lysyl-tRNA synthetase]
56 | 106 | LAPPLSPTKPSPLH [253-266 Hypothetical ORF]
57 | 530 | IVNPFIPRRPYSNV [859-872 Hypothetical ORF]
58 | 352 | IIIPPIPSKHSLLK [171-184 Hypothetical ORF]
59 | 87.7 | IFPPLNPARTSLNS [172-185 homologous to Ssf2p;possibly involved in mating]
